Values quoted from earlier work as cited in PMC11170211.

System: Asp102
Test: NMR

## alpha-lytic protease (not stated in the article (described only as bacterial); Lysobacter enzymogenes from outside knowledge)
  pKa: below 1.5
